Results from patent US5847088A, “Antibodies specific for platelet-activating factor acetylhydrolase” (ICOS Corporation, priority 1995, dated 1998).

B1: S108A: PAF-AH analog with single amino acid substitution, expressed in E. coli (protein)
chain: MVPPKLHVLFCLCGCLAVVYPFDWQYINPVAHMKSSAWVNKIQVLMAAASFGQTKIPRGNGPYSVGCTDLMFDHTNKGTFLRLYYPSQDNDRLDTLWIPNKEYFWGLAKFLGTHWLMGNILRLLFGSMTTPANWNSPLRPGEKYPLVVFSHGLGAFRTLYSAIGIDLASHGFIVAAVEHRDRSASATYYFKDQSAAEIGDKSWLYLRTLKQEEETHIRNEQVRQRAKECSQALSLILDIDHGKPVKNALDLKFDMEQLKDSIDREKIAVIGHSFGGATVIQTLSEDQRFRCGIALDAWMFPLGDEVYSRIPQPLFFINSEYFQYPANIIKMKKCYSPDKERKMITIRGSVHQNFADFTFATGKIIGHMLKLKGDIDSNVAIDLSNKASLAFLQKHLGLHKDFDQWDCLIEGDDENLIPGTNINTTNQHIMLQNSSGIEKYN
B2: D338A: PAF-AH analog with single amino acid substitution (protein)
chain: MVPPKLHVLFCLCGCLAVVYPFDWQYINPVAHMKSSAWVNKIQVLMAAASFGQTKIPRGNGPYSVGCTDLMFDHTNKGTFLRLYYPSQDNDRLDTLWIPNKEYFWGLSKFLGTHWLMGNILRLLFGSMTTPANWNSPLRPGEKYPLVVFSHGLGAFRTLYSAIGIDLASHGFIVAAVEHRDRSASATYYFKDQSAAEIGDKSWLYLRTLKQEEETHIRNEQVRQRAKECSQALSLILDIDHGKPVKNALDLKFDMEQLKDSIDREKIAVIGHSFGGATVIQTLSEDQRFRCGIALDAWMFPLGDEVYSRIPQPLFFINSEYFQYPANIIKMKKCYSPAKERKMITIRGSVHQNFADFTFATGKIIGHMLKLKGDIDSNVAIDLSNKASLAFLQKHLGLHKDFDQWDCLIEGDDENLIPGTNINTTNQHIMLQNSSGIEKYN
B3: S273A: PAF-AH analog, Ser273 changed to alanine (protein)
chain: MVPPKLHVLFCLCGCLAVVYPFDWQYINPVAHMKSSAWVNKIQVLMAAASFGQTKIPRGNGPYSVGCTDLMFDHTNKGTFLRLYYPSQDNDRLDTLWIPNKEYFWGLSKFLGTHWLMGNILRLLFGSMTTPANWNSPLRPGEKYPLVVFSHGLGAFRTLYSAIGIDLASHGFIVAAVEHRDRSASATYYFKDQSAAEIGDKSWLYLRTLKQEEETHIRNEQVRQRAKECSQALSLILDIDHGKPVKNALDLKFDMEQLKDSIDREKIAVIGHAFGGATVIQTLSEDQRFRCGIALDAWMFPLGDEVYSRIPQPLFFINSEYFQYPANIIKMKKCYSPDKERKMITIRGSVHQNFADFTFATGKIIGHMLKLKGDIDSNVAIDLSNKASLAFLQKHLGLHKDFDQWDCLIEGDDENLIPGTNINTTNQHIMLQNSSGIEKYN
B4: D286A: PAF-AH analog with single amino acid substitution (protein)
chain: MVPPKLHVLFCLCGCLAVVYPFDWQYINPVAHMKSSAWVNKIQVLMAAASFGQTKIPRGNGPYSVGCTDLMFDHTNKGTFLRLYYPSQDNDRLDTLWIPNKEYFWGLSKFLGTHWLMGNILRLLFGSMTTPANWNSPLRPGEKYPLVVFSHGLGAFRTLYSAIGIDLASHGFIVAAVEHRDRSASATYYFKDQSAAEIGDKSWLYLRTLKQEEETHIRNEQVRQRAKECSQALSLILDIDHGKPVKNALDLKFDMEQLKDSIDREKIAVIGHSFGGATVIQTLSEAQRFRCGIALDAWMFPLGDEVYSRIPQPLFFINSEYFQYPANIIKMKKCYSPDKERKMITIRGSVHQNFADFTFATGKIIGHMLKLKGDIDSNVAIDLSNKASLAFLQKHLGLHKDFDQWDCLIEGDDENLIPGTNINTTNQHIMLQNSSGIEKYN
B5: C229S: PAF-AH analog, Cys229 mutated to serine (protein)
chain: MVPPKLHVLFCLCGCLAVVYPFDWQYINPVAHMKSSAWVNKIQVLMAAASFGQTKIPRGNGPYSVGCTDLMFDHTNKGTFLRLYYPSQDNDRLDTLWIPNKEYFWGLSKFLGTHWLMGNILRLLFGSMTTPANWNSPLRPGEKYPLVVFSHGLGAFRTLYSAIGIDLASHGFIVAAVEHRDRSASATYYFKDQSAAEIGDKSWLYLRTLKQEEETHIRNEQVRQRAKESSQALSLILDIDHGKPVKNALDLKFDMEQLKDSIDREKIAVIGHSFGGATVIQTLSEDQRFRCGIALDAWMFPLGDEVYSRIPQPLFFINSEYFQYPANIIKMKKCYSPDKERKMITIRGSVHQNFADFTFATGKIIGHMLKLKGDIDSNVAIDLSNKASLAFLQKHLGLHKDFDQWDCLIEGDDENLIPGTNINTTNQHIMLQNSSGIEKYN
B6: H351A: PAF-AH analog, His351 changed to alanine (protein)
chain: MVPPKLHVLFCLCGCLAVVYPFDWQYINPVAHMKSSAWVNKIQVLMAAASFGQTKIPRGNGPYSVGCTDLMFDHTNKGTFLRLYYPSQDNDRLDTLWIPNKEYFWGLSKFLGTHWLMGNILRLLFGSMTTPANWNSPLRPGEKYPLVVFSHGLGAFRTLYSAIGIDLASHGFIVAAVEHRDRSASATYYFKDQSAAEIGDKSWLYLRTLKQEEETHIRNEQVRQRAKECSQALSLILDIDHGKPVKNALDLKFDMEQLKDSIDREKIAVIGHSFGGATVIQTLSEDQRFRCGIALDAWMFPLGDEVYSRIPQPLFFINSEYFQYPANIIKMKKCYSPDKERKMITIRGSVAQNFADFTFATGKIIGHMLKLKGDIDSNVAIDLSNKASLAFLQKHLGLHKDFDQWDCLIEGDDENLIPGTNINTTNQHIMLQNSSGIEKYN
B7: D296A: PAF-AH analog, Asp296 changed to alanine (protein)
chain: MVPPKLHVLFCLCGCLAVVYPFDWQYINPVAHMKSSAWVNKIQVLMAAASFGQTKIPRGNGPYSVGCTDLMFDHTNKGTFLRLYYPSQDNDRLDTLWIPNKEYFWGLSKFLGTHWLMGNILRLLFGSMTTPANWNSPLRPGEKYPLVVFSHGLGAFRTLYSAIGIDLASHGFIVAAVEHRDRSASATYYFKDQSAAEIGDKSWLYLRTLKQEEETHIRNEQVRQRAKECSQALSLILDIDHGKPVKNALDLKFDMEQLKDSIDREKIAVIGHSFGGATVIQTLSEDQRFRCGIALAAWMFPLGDEVYSRIPQPLFFINSEYFQYPANIIKMKKCYSPDKERKMITIRGSVHQNFADFTFATGKIIGHMLKLKGDIDSNVAIDLSNKASLAFLQKHLGLHKDFDQWDCLIEGDDENLIPGTNINTTNQHIMLQNSSGIEKYN
B8: D286N: PAF-AH analog with single amino acid substitution (protein)
chain: MVPPKLHVLFCLCGCLAVVYPFDWQYINPVAHMKSSAWVNKIQVLMAAASFGQTKIPRGNGPYSVGCTDLMFDHTNKGTFLRLYYPSQDNDRLDTLWIPNKEYFWGLSKFLGTHWLMGNILRLLFGSMTTPANWNSPLRPGEKYPLVVFSHGLGAFRTLYSAIGIDLASHGFIVAAVEHRDRSASATYYFKDQSAAEIGDKSWLYLRTLKQEEETHIRNEQVRQRAKECSQALSLILDIDHGKPVKNALDLKFDMEQLKDSIDREKIAVIGHSFGGATVIQTLSENQRFRCGIALDAWMFPLGDEVYSRIPQPLFFINSEYFQYPANIIKMKKCYSPDKERKMITIRGSVHQNFADFTFATGKIIGHMLKLKGDIDSNVAIDLSNKASLAFLQKHLGLHKDFDQWDCLIEGDDENLIPGTNINTTNQHIMLQNSSGIEKYN
B9: D304A: PAF-AH analog with single amino acid substitution (protein)
chain: MVPPKLHVLFCLCGCLAVVYPFDWQYINPVAHMKSSAWVNKIQVLMAAASFGQTKIPRGNGPYSVGCTDLMFDHTNKGTFLRLYYPSQDNDRLDTLWIPNKEYFWGLSKFLGTHWLMGNILRLLFGSMTTPANWNSPLRPGEKYPLVVFSHGLGAFRTLYSAIGIDLASHGFIVAAVEHRDRSASATYYFKDQSAAEIGDKSWLYLRTLKQEEETHIRNEQVRQRAKECSQALSLILDIDHGKPVKNALDLKFDMEQLKDSIDREKIAVIGHSFGGATVIQTLSEDQRFRCGIALDAWMFPLGAEVYSRIPQPLFFINSEYFQYPANIIKMKKCYSPDKERKMITIRGSVHQNFADFTFATGKIIGHMLKLKGDIDSNVAIDLSNKASLAFLQKHLGLHKDFDQWDCLIEGDDENLIPGTNINTTNQHIMLQNSSGIEKYN
B10: C67S: PAF-AH analog, cysteine mutated to serine (protein)
chain: MVPPKLHVLFCLCGCLAVVYPFDWQYINPVAHMKSSAWVNKIQVLMAAASFGQTKIPRGNGPYSVGSTDLMFDHTNKGTFLRLYYPSQDNDRLDTLWIPNKEYFWGLSKFLGTHWLMGNILRLLFGSMTTPANWNSPLRPGEKYPLVVFSHGLGAFRTLYSAIGIDLASHGFIVAAVEHRDRSASATYYFKDQSAAEIGDKSWLYLRTLKQEEETHIRNEQVRQRAKECSQALSLILDIDHGKPVKNALDLKFDMEQLKDSIDREKIAVIGHSFGGATVIQTLSEDQRFRCGIALDAWMFPLGDEVYSRIPQPLFFINSEYFQYPANIIKMKKCYSPDKERKMITIRGSVHQNFADFTFATGKIIGHMLKLKGDIDSNVAIDLSNKASLAFLQKHLGLHKDFDQWDCLIEGDDENLIPGTNINTTNQHIMLQNSSGIEKYN
B11: Wild type: wild type human PAF-AH expressed in E. coli, control of mutation series (protein, UniProt Q13093 22-441, looked up)
Platelet-activating factor …: FDWQYINPVAHMKSSAWVNKIQVLMAAASFGQTKIPRGNGPYSVGCTDLMFDHTNKGTFLRLYYPSQDNDRLDTLWIPNKEYFWGLSKFLGTHWLMGNILRLLFGSMTTPANWNSPLRPGEKYPLVVFSHGLGAFRTLYSAIGIDLASHGFIVAAVEHRDRSASATYYFKDQSAAEIGDKSWLYLRTLKQEEETHIRNEQVRQRAKECSQALSLILDIDHGKPVKNALDLKFDMEQLKDSIDREKIAVIGHSFGGATVIQTLSEDQRFRCGIALDAWMFPLGDEVYSRIPQPLFFINSEYFQYPANIIKMKKCYSPDKERKMITIRGSVHQNFADFTFATGKIIGHMLKLKGDIDSNVAIDLSNKASLAFLQKHLGLHKDFDQWDCLIEGDDENLIPGTNINTTNQHIMLQNSSGIEKYN

test: PAF-AH activity of PAF-AH products expressed in E. coli (hydrolysis of 3H-acetate from [acetyl-3H] PAF); format: biochemical; details: amino acid substitution products expressed in E. coli

Molecule	PAF-AH activity
B1	++++ (wild type PAF-AH activity of about 40-60 U/ml/OD600)
B2	++++ (wild type PAF-AH activity of about 40-60 U/ml/OD600)
B3	- (<1 U/ml/OD600 activity)
B4	- (<1 U/ml/OD600 activity)
B5	+ (1-10 U/ml/OD600 activity)
B6	- (<1 U/ml/OD600 activity)
B7	- (<1 U/ml/OD600 activity)
B8	++ (about 10-20 U/ml/OD600 activity)
B9	++++ (wild type PAF-AH activity of about 40-60 U/ml/OD600)
B10	+++ (about 20-40 U/ml/OD600 activity)
B11	++++ (wild type PAF-AH activity of about 40-60 U/ml/OD600)
